Assay results published in patent publication US20140271457A1 (AbbVie / Abbott, published 2014).
Positions count from the first letter of the chain named.

B1: DVD3223 (bispecific antibody, IgG1)
VH: EVQLVQSGAEVKKPGASVKVSCKASGYTFANYGIIWVRQAPGQGLEWMGWINTYTGKPTYAQKFQGRVTMTTDTSTSTAYMELSSLRSEDTAVYYCARKLFTTMDVTDNAMDYWGQGTTVTVSSGGGGSGGGGSEVQLVESGGGLVQPGGSLRLSCAASGFSFSKYWLGWVRQAPGKGLEWVSDIYPGYDYTHYNEKFKDRFTISADTSKNTAYLQMNSLRAEDTAVYYCARSDGSSTYWGQGTLVTVSS
VL: DIQMTQSPSSLSASVGDRVTITCRASQDISQYLNWYQQKPGKAPKLLIYYTSRLQSGVPSRFSGSGSGTDFTLTISSLQPEDFATYFCQQGNTWPPTFGQGTKLEIKRGGSGGGGSGDIQMTQSPSSLSASVGDRVTITCTSSQNIVHSNGNTYLEWYQQKPGKAPKLLIYKVSNRFSGVPSRFSGSGSGTDFTLTISSLQPEDFATYYCFQVSHVPYTFGQGTKVEIKR
B2: DVD3224 (bispecific antibody, IgG1)
VH: EVQLVQSGAEVKKPGASVKVSCKASGYTFANYGIIWVRQAPGQGLEWMGWINTYTGKPTYAQKFQGRVTMTTDTSTSTAYMELSSLRSEDTAVYYCARKLFTTMDVTDNAMDYWGQGTTVTVSSASTKGPEVQLVESGGGLVQPGGSLRLSCAASGFSFSKYWLGWVRQAPGKGLEWVSDIYPGYDYTHYNEKFKDRFTISADTSKNTAYLQMNSLRAEDTAVYYCARSDGSSTYWGQGTLVTVSS
VL: DIQMTQSPSSLSASVGDRVTITCRASQDISQYLNWYQQKPGKAPKLLIYYTSRLQSGVPSRFSGSGSGTDFTLTISSLQPEDFATYFCQQGNTWPPTFGQGTKLEIKRTVAAPDIQMTQSPSSLSASVGDRVTITCTSSQNIVHSNGNTYLEWYQQKPGKAPKLLIYKVSNRFSGVPSRFSGSGSGTDFTLTISSLQPEDFATYYCFQVSHVPYTFGQGTKVEIKR
B3: DVD3226 (bispecific antibody, IgG1)
VH: B2 VH
VL: DIQMTQSPSSLSASVGDRVTITCRASQDISQYLNWYQQKPGKAPKLLIYYTSRLQSGVPSRFSGSGSGTDFTLTISSLQPEDFATYFCQQGNTWPPTFGQGTKLEIKRTVAAPSVFIFPPDIQMTQSPSSLSASVGDRVTITCTSSQNIVHSNGNTYLEWYQQKPGKAPKLLIYKVSNRFSGVPSRFSGSGSGTDFTLTISSLQPEDFATYYCFQVSHVPYTFGQGTKVEIKR
B4: DVD3227 (bispecific antibody, IgG1)
VH: EVQLVQSGAEVKKPGASVKVSCKASGYTFANYGIIWVRQAPGQGLEWMGWINTYTGKPTYAQKFQGRVTMTTDTSTSTAYMELSSLRSEDTAVYYCARKLFTTMDVTDNAMDYWGQGTTVTVSSASTKGPSVFPLAPEVQLVESGGGLVQPGGSLRLSCAASGFSFSKYWLGWVRQAPGKGLEWVSDIYPGYDYTHYNEKFKDRFTISADTSKNTAYLQMNSLRAEDTAVYYCARSDGSSTYWGQGTLVTVSS
VL: B2 VL
B5: DVD3228 (bispecific antibody, IgG1)
VH: EVQLVESGGGLVQPGGSLRLSCAASGFSFSKYWLGWVRQAPGKGLEWVSDIYPGYDYTHYNEKFKDRFTISADTSKNTAYLQMNSLRAEDTAVYYCARSDGSSTYWGQGTLVTVSSGGGGSGGGGSEVQLVQSGAEVKKPGASVKVSCKASGYTFANYGIIWVRQAPGQGLEWMGWINTYTGKPTYAQKFQGRVTMTTDTSTSTAYMELSSLRSEDTAVYYCARKLFTTMDVTDNAMDYWGQGTTVTVSS
VL: DIQMTQSPSSLSASVGDRVTITCTSSQNIVHSNGNTYLEWYQQKPGKAPKLLIYKVSNRFSGVPSRFSGSGSGTDFTLTISSLQPEDFATYYCFQVSHVPYTFGQGTKVEIKRGGSGGGGSGDIQMTQSPSSLSASVGDRVTITCRASQDISQYLNWYQQKPGKAPKLLIYYTSRLQSGVPSRFSGSGSGTDFTLTISSLQPEDFATYFCQQGNTWPPTFGQGTKLEIKR
B6: DVD3229 (bispecific antibody, IgG1)
VH: EVQLVESGGGLVQPGGSLRLSCAASGFSFSKYWLGWVRQAPGKGLEWVSDIYPGYDYTHYNEKFKDRFTISADTSKNTAYLQMNSLRAEDTAVYYCARSDGSSTYWGQGTLVTVSSASTKGPEVQLVQSGAEVKKPGASVKVSCKASGYTFANYGIIWVRQAPGQGLEWMGWINTYTGKPTYAQKFQGRVTMTTDTSTSTAYMELSSLRSEDTAVYYCARKLFTTMDVTDNAMDYWGQGTTVTVSS
VL: DIQMTQSPSSLSASVGDRVTITCTSSQNIVHSNGNTYLEWYQQKPGKAPKLLIYKVSNRFSGVPSRFSGSGSGTDFTLTISSLQPEDFATYYCFQVSHVPYTFGQGTKVEIKRTVAAPDIQMTQSPSSLSASVGDRVTITCRASQDISQYLNWYQQKPGKAPKLLIYYTSRLQSGVPSRFSGSGSGTDFTLTISSLQPEDFATYFCQQGNTWPPTFGQGTKLEIKR
B7: DVD3231 (bispecific antibody, IgG1)
VH: B6 VH
VL: DIQMTQSPSSLSASVGDRVTITCTSSQNIVHSNGNTYLEWYQQKPGKAPKLLIYKVSNRFSGVPSRFSGSGSGTDFTLTISSLQPEDFATYYCFQVSHVPYTFGQGTKVEIKRTVAAPSVFIFPPDIQMTQSPSSLSASVGDRVTITCRASQDISQYLNWYQQKPGKAPKLLIYYTSRLQSGVPSRFSGSGSGTDFTLTISSLQPEDFATYFCQQGNTWPPTFGQGTKLEIKR
B8: DVD3232 (bispecific antibody, IgG1)
VH: EVQLVESGGGLVQPGGSLRLSCAASGFSFSKYWLGWVRQAPGKGLEWVSDIYPGYDYTHYNEKFKDRFTISADTSKNTAYLQMNSLRAEDTAVYYCARSDGSSTYWGQGTLVTVSSASTKGPSVFPLAPEVQLVQSGAEVKKPGASVKVSCKASGYTFANYGIIWVRQAPGQGLEWMGWINTYTGKPTYAQKFQGRVTMTTDTSTSTAYMELSSLRSEDTAVYYCARKLFTTMDVTDNAMDYWGQGTTVTVSS
VL: B6 VL
B9: DVD3233 (bispecific antibody, IgG1)
VH: B1 VH with A30N, T102N, M104V, D105A
VL: B1 VL with S30E, Q31N, W94Q
B10: DVD3234 (bispecific antibody, IgG1)
VH: B2 VH with A30N, T102N, M104V, D105A
VL: B2 VL with S30E, Q31N, W94Q
B11: DVD3236 (bispecific antibody, IgG1)
VH: B2 VH with A30N, T102N, M104V, D105A
VL: B3 VL with S30E, Q31N, W94Q
B12: DVD3237 (bispecific antibody, IgG1)
VH: B4 VH with A30N, T102N, M104V, D105A
VL: B2 VL with S30E, Q31N, W94Q
B13: DVD3238 (bispecific antibody, IgG1)
VH: B5 VH with A156N, T228N, M230V, D231A
VL: B5 VL with S152E, Q153N, W216Q

Target: Recombinant Human TNF-α/TNFSF1A (human, UniProt P01375 77-233)
Sequence (P01375 77-233 limits assumed): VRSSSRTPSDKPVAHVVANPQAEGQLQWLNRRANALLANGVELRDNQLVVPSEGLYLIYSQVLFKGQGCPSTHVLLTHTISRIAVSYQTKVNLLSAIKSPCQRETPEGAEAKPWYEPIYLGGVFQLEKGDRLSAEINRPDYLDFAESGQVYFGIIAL
Test: cell-based or functional assay

Row | Binder | N-Terminal VD huTNFα Neutralization Assay IC50 [nM] | C-Terminal VD huTNFα Neutralization Assay IC50 [nM]
1 | B1 | 0.002 | –
2 | B2 | 0.004 | –
3 | B3 | 0.011 | –
4 | B4 | 0.002 | –
5 | B5 | – | 0.052
6 | B6 | – | 0.086
7 | B7 | – | 0.112
8 | B8 | – | 0.254
9 | B9 | 0.005 | –
10 | B10 | 0.009 | –
11 | B11 | 0.006 | –
12 | B12 | 0.01 | –
13 | B13 | – | 0.168
